{"source": "paper PMC4319893", "about": "“Targeting Protein-Protein Interactions with Trimeric Ligands: High Affinity Inhibitors of the MAGUK Protein Family” (PLoS ONE, 2015)", "molecular_target": "PSD-95 PDZ3 (human)", "experiment": "fluorescence polarisation; truncation study of CRIPT C-terminal peptides on PSD-95 PDZ3 and PSD-95 FL (S1 Table); probe not told"}
{"binder": "IETAV", "values": [{"measurement": "affinity", "result": "> 50", "unit": "µM"}]}
